These results are taken from paper PMC10570036, “Yeast transcription factor Msn2 binds to G4 DNA”.

Data set [1] deals with T1, GST-Msn2(596-704) zinc-finger domain (Saccharomyces cerevisiae, UniProt P33748 596-704).
T1 sequence: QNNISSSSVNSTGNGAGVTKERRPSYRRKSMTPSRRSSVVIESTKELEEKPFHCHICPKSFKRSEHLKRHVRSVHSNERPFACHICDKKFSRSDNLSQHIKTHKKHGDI
Description: EMSA; EMSA: oligos (0.1 uM) folded in 10 mM Tris-HCl pH 7.5, 100 mM KCl or LiCl; binding in 10 mM Tris-HCl pH 8.0, 1 mM DTT, 0.01% NP-40, 5% glycerol, 50 uM ZnSO4, room temperature 30 min; pull-down: 400 pmol biotin oligo folded in 100 mM KCl or LiCl, streptavidin beads, yeast whole cell lysate. To be noted: protein: recombinant; tags: N-terminal GST (pGEX4T1); label: 5' Cy5 on sense strand; blunt. A general note: Mobility shift assays separate free from complexed probe on a gel.

For data set [2], the target named is T1, GST-Msn2(596-704) zinc-finger domain. The experiment in a line: EMSA; 100 mM K+; EMSA: oligos (0.1 uM) folded in 10 mM Tris-HCl pH 7.5, 100 mM KCl or LiCl; binding in 10 mM Tris-HCl pH 8.0, 1 mM DTT, 0.01% NP-40, 5% glycerol, 50 uM ZnSO4, room temperature 30 min; pull-down: 400 pmol biotin oligo folded in 100 mM KCl or LiCl, streptavidin beads, yeast whole cell lysate. To be noted: protein: recombinant; tags: N-terminal GST (pGEX4T1); label: 5' Cy5 on sense strand; blunt.

Data set [3] shares this target. The experiment in a line: EMSA; folded in 100 mM K+; EMSA: oligos (0.1 uM) folded in 10 mM Tris-HCl pH 7.5, 100 mM KCl or LiCl; binding in 10 mM Tris-HCl pH 8.0, 1 mM DTT, 0.01% NP-40, 5% glycerol, 50 uM ZnSO4, room temperature 30 min; pull-down: 400 pmol biotin oligo folded in 100 mM KCl or LiCl, streptavidin beads, yeast whole cell lysate. As to conditions: protein: recombinant, tags: N-terminal GST (pGEX4T1), label: 5' Cy5.

Data set [4] has the same target. Description: EMSA; folded in 100 mM K+; 50 uM Zn2+; EMSA: oligos (0.1 uM) folded in 10 mM Tris-HCl pH 7.5, 100 mM KCl or LiCl; binding in 10 mM Tris-HCl pH 8.0, 1 mM DTT, 0.01% NP-40, 5% glycerol, 50 uM ZnSO4, room temperature 30 min; pull-down: 400 pmol biotin oligo folded in 100 mM KCl or LiCl, streptavidin beads, yeast whole cell lysate. To be noted: protein: recombinant, tags: N-terminal GST (pGEX4T1), label: 5' Cy5.

For data set [5] the target is unchanged. Description: EMSA; folded in K+ or Li+; no significant interaction; EMSA: oligos (0.1 uM) folded in 10 mM Tris-HCl pH 7.5, 100 mM KCl or LiCl; binding in 10 mM Tris-HCl pH 8.0, 1 mM DTT, 0.01% NP-40, 5% glycerol, 50 uM ZnSO4, room temperature 30 min; pull-down: 400 pmol biotin oligo folded in 100 mM KCl or LiCl, streptavidin beads, yeast whole cell lysate. As to conditions: protein: recombinant; tags: N-terminal GST (pGEX4T1); label: 5' Cy5; G4.

B1: dsCTT1STREMut (dsDNA)
DNA 1: CTCTTTTTCATGTGTATCACCGGTATGTGTCCAATCTGTG
DNA 2: CACAGATTGGACACATACCGGTGATACACATGAAAAAGAG
As for B1, in data set [1], the binding result is given as “no binding”.

B2: dsCTT1 (dsDNA)
DNA 1: CTCTTTTTCAAGGGGATCACCGGTAAGGGGCCAATCTGTG
DNA 2: CACAGATTGGCCCCTTACCGGTGATCCCCTTGAAAAAGAG
Turning to B2, the binding result in data set [2] is on record as “binds”.
GAGCTGGGGTGAGCTGGGCTGAGCTGGGGTGAGCTGGGCTGAGCT (structured_DNA) [Cy5-SµG]: the binding result in data set [3] (G4) is on record as “binds”.
Consider GGACCGGGGGCACACCGGGGTAGGGGGTCCGGAGGGTTAAC (structured_DNA) [Cy5-ATG39pG4], for which the Kd in data set [4] (intramolecular parallel G4) was 30.2 ± 7.2 nM.
As for CCGCTGAGCAGGTCAGAGCAGAGACTCTCAGAGAGACGCCA (ssDNA) [Cy5-TPS1pG4Mut], in data set [3], the binding result is given as “no binding”.
As for GGACCGAGAGCACACCGAGATAGAGAGTCCGGAGAGTTAAC (ssDNA) [Cy5-ATG39pG4Mut], the binding result in data set [3] is “no binding”.
As for GGGCGGGCGCGAGGGAGGGG (structured_DNA) [Cy5-c-KIT2], the binding result in data set [3] (G4) is “no binding”.
As for ATTCTTGGGGCTGGGGTCCCTTGGGGAACTGTATTGGGTGAACC (structured_DNA) [Cy5-ATG7 G4], the binding result in data set [3] (G4) is given as “binds”.
For the molecule CCGCTGGGCAGGTCAGGGCAGGGGCTCTCAGGGGGGCGCCA (structured_DNA) [Cy5-TPS1pG4], in data set [3] (G4), the binding result was “binds”.
As for CCCGGGCGGGCGCGAGGGAGGGGAGG (structured_DNA) [c-KIT2Long], the binding result in data set [5] is reported as “no binding”.
On to TGGGTGTTGTTGGGGGAGGGAAATGGGT (structured_DNA) [Cy5-BRCA1-G3], for which, in data set [4] (parallel G4 in K+), the Kd stood at 37.8 ± 11.4 nM.

The Kd is the equilibrium constant for the complex coming apart.
